Laboratory results: patent publication US20090202574A1, “METHODS OF IMMUNE OR HAEMATOLOGICAL ENHANCEMENT, INHIBITING TUMOUR FORMATION OR GROWTH, AND TREATING OR PREVENTING CANCER” (priority 2004, published 2009)

Tests used:
EL-4 target cells = assay: Anti-tumour CTL and/or NK cell cytolytic activity of splenocytes against EL-4 target cells; settings: Example 1; splenocytes at day 42; vs control diet
Experimental: Splenocytes were harvested 28 days following tumour cell injection, as specified. They were incubated at 37° C. with EL-4 target cells in graded E:T ratios in 96-well round-bottom plates. After a 4-hour incubation, 50 μl of supernatant was collected, and lysis was measured using the Cyto Tox 96 Assay Kit (Promega, Madison, Wis., USA). Background controls for non-specific target and effector cell lysis were included. After background subtraction, percentage of cell lysis was calculated using the formula: 100× (experimental-spontaneous effector-spontaneous target/maximum target-spontaneous target).

EL-4 tumours = assay: EL-4 tumour growth in mice (s.c. flank tumour model); type: in vivo, C57BL/6 mice; settings: Example 1; oral diet; day 42; vs control diet
IL-18 [1] = assay: IL-18 production by cultured intestinal loops; type: cell-based, mice; settings: Example 20; 400 and 800 μg/ml; 48 h; vs bovine serum albumin control protein
Experimental: Cytokine levels in the supernatants of homogenates of the small intestine were determined using a “sandwich” ELISA kit (Endogen, Woburn, Mass.). They were detected within standard curve ranges of 15-375 pg/ml for IL-4, 0-2450 pg/ml for IL-5, 15-1000 pg/ml for TNF-α, 0-3000 pg/ml for IFN-γ, 37-3000 pg/ml for IL-10, 31.3-2000 pg/ml for IL-12, and 31.3-2000 pg/ml for IL-18, respectively. Quantification of nitrite, indicative of NO production, was carried out by the Griess reaction (Sigma, USA). The results are expressed as the mean nitrite concentration (μM)±SD.
100% Fe-saturated Lf, natural Lf (less than 20% iron saturated), and bovine serum albumin control were added at 400 and 800 μg/ml to intestinal loops (2.5 cm segments of the small intestine) prepared from healthy 6 to 7 week-old female mice, which were kept in culture for 48 h. IL-18 levels released by the intestinal loops, and present in the supernatants of homogenates of the small intestine were determined using a “sandwich” ELISA kit as described above.

IL-18 [2] = settings: WO 03/099323, cited from earlier work

B1: natural bLf: bovine lactoferrin extract from skim milk with natural levels of iron-saturation of approximately 5 to 15% (protein, UniProt P24627 20-708, looked up)
Lactotransferrin: APRKNVRWCTISQPEWFKCRRWQWRMKKLGAPSITCVRRAFALECIRAIAEKKADAVTLDGGMVFEAGRDPYKLRPVAAEIYGTKESPQTHYYAVAVVKKGSNFQLDQLQGRKSCHTGLGRSAGWIIPMGILRPYLSWTESLEPLQGAVAKFFSASCVPCIDRQAYPNLCQLCKGEGENQCACSSREPYFGYSGAFKCLQDGAGDVAFVKETTVFENLPEKADRDQYELLCLNNSRAPVDAFKECHLAQVPSHAVVARSVDGKEDLIWKLLSKAQEKFGKNKSRSFQLFGSPPGQRDLLFKDSALGFLRIPSKVDSALYLGSRYLTTLKNLRETAEEVKARYTRVVWCAVGPEEQKKCQQWSQQSGQNVTCATASTTDDCIVLVLKGEADALNLDGGYIYTAGKCGLVPVLAENRKSSKHSSLDCVLRPTEGYLAVAVVKKANEGLTWNSLKDKKSCHTAVDRTAGWNIPMGLIVNQTGSCAFDEFFSQSCAPGADPKSRLCALCAGDDQGLDKCVPNSKEKYYGYTGAFRCLAEDVGDVAFVKNDTVWENTNGESTADWAKNLNREDFRLLCLDGTRKPVTEAQSCHLAVAPNHAVVSRSDRAAHVKQVLLHQQALFGKNGKNCPDKFCLFKSETKNLLFNDNTECLAKLGGRPTYEEYLGTEYVTAIANLKKCSTSPLLEACAFLTR
EL-4 target cells
  anti-tumour CTL and/or NK cell activity of splenocytes: slightly enhanced
EL-4 tumours
  inhibition in tumour size: 11%
IL-18 [1]
  increase in the levels of IL-18 in the intestine: ~2 fold

B2: bovine lactoferrin: bovine lactoferrin as reported in WO 03/099323, compared with recombinant human lactoferrin (protein)
chain: APRKNVRWCTISQPEWFKCRRWQWRMKKLGAPSITCVRRAFALECIRAIAEKKADAVTLDGGMVFEAGRDPYKLRPVAAEIYGTKESPQTHYYAVAVVKKGSNFQLDQLQGRKSCHTGLGRSAGWIIPMGILRPYLSWTESLEPLQGAVAKFFSASCVPCIDRQAYPNLCQLCKGEGENQCACSSREPYFGYSGAFKCLQDGAGDVAFVKETTVFENLPEKADRDQYELLCLNNSRAPVDAFKECHLAQVPSHAVVARSVDGKEDLIWKLLSKAQEKFGKNKSRSFQLFGSPPGQRDLLFKDSALGFLRIPSKVDSALYLGSRYLTTLKNLRETAEEVKARYTRVVWCAVGPEEQKKCQQWSQQSGQNVTCATASTTDDCIVLVLKGEADALNLDGGYIYTAGKCGLVPVLAENRKSSKHSSLDCVLRPTEGYLAVAVVKKANEGLTWNSLKDKKSCHTAVDRTAGWNIPMGLIVNQTGSCAFDEFFSQSCAPGADPKSRLCALCAGDDQGLDKCVPNSKEKYYGYTGAFRCLAEDVGDVAFVKNDTVWENTNGESTADWAKNLNREDFRLLCLDGTRKPVTEAQSCHLAVAPNHAVVSRSDRAAHVKQVLLHQQALFGKNGKNCPDKFCLFKSETKNLLFNDNTECLAKLGGRPTYEEYLGTEYVTAIANLKKCSTSPLLEACAFLTR
modifications: Bovine Lactoferrin
notes: bovine lactoferrin as reported in WO 03/099323, compared with recombinant human lactoferrin
IL-18 [2]
  serum levels of IL-18: did not increase
IL-18 [2]; compared with recombinant human lactoferrin
  intestinal IL-18 levels: lesser increase
